Legend:
[1] = TIDE 2X 0.78 g/l, 6 gpg, pH 8.2, 30 min at 20°C, A405; variant vs wild-type thermolysin at same protein concentration
Description: Thermolysin containing protease samples were obtained from filtered broth of cultures grown in microtiter plates for 3 days at 37° C. with shaking at 280 rpm under humidified aeration.
• Thermolysin containing culture supernatants (˜100-200 μg protein per ml) • TIDE® 2× (nil enzymes) detergent (P&G) • Dilution Buffer (10 mM NaCl, 0.1 mM CaCl2, 0.005% TWEEN®-80) The equipment used was a Biomek FX Robot (Beckman Coulter), a SpectraMAX MTP Reader (type 340; Molecular Devices), and an iEMS incubator/shaker (Thermo/Labsystems). MTPs were obtained from Costar (type 9017). TIDE® 2× Liquid Detergent Preparation (US Conditions):
Milli-Q water was adjusted to 6 gpg water hardness using a (Ca/Mg 3:1) hardness stock solution (282.3 g/L CaCl2.2H20, 130.1 g/L MgCl2.6H2O), 0.78 g/1 detergent TIDE® 2× was added, and the detergent solution was stirred vigorously for at least 15 minutes. Then, 5 mM HEPES was added and the pH adjusted to 8.2.
Microswatches of ¼ inch circular diameter were obtained from CFT (Vlaardingen, The Netherlands).
Two microswatches were placed vertically into each well of a 96-well microtiter plate to expose the whole surface area (i.e., not flat on the bottom of the well).
The incubator was set to 20° C. The filtered culture broth samples were tested at an appropriate concentration by dilution with a mixture of 10 mM NaCl, 0.1 mM CaCl2, 0.005% TWEEN®-80 solution. The detergent solution was prepared as described above. Then, 190 μl of detergent solution were added to each well of the MTP, containing microswatches. To this mixture, 10 μl of diluted enzyme solution were added to each well (to provide a total volume of 200 μl/well). The MTP was covered with a plate seal and placed in an incubator for 30 minutes at 20° C., with agitation at 1400 rpm (iEMS incubator). Following incubation under the appropriate conditions, 100 μl of solution from each well was removed and placed into a new MTP. Subsequently this MTP, containing 100 μl of solution/well, was read at 405 nm in a MTP-Reader. Blank controls, containing 2 microswatches/well and detergent, without the addition of thermolysin containing samples, were also included in the test.
The observed absorbance value was corrected for the blank value (obtained after incubation of microswatches in the absence of added enzyme). The resulting absorbance was a measure for the hydrolytic activity. For each sample (thermolysin or a variant) the performance index (PI) was calculated. The performance index is a comparison of the performance of the variant (actual value) and the standard thermolysin enzyme (theoretical value) at the same protein concentration. In addition, the theoretical values were calculated, using the parameters of the Langmuir equation of the standard enzyme.
C. Stability Assay in the Presence of Detergent
In this example, experiments were conducted to determine the stain removal performance of various singly substituted thermolysin (also referred to herein as Proteinase-T or PrT) variants. As described in Example 1, the stain cleaning performance of thermolysin variants was done utilizing a blood/milk/ink (BMI) microswatch assay. Briefly the cleaning performance of chosen single-substitution thermolysin variants was assessed in a TIDE® 2× microswatch assay.

[2] = Stability assay in 25% TIDE 2X detergent with DTPA (residual Abz-AGLA-Nba protease activity); type: physicochemical; settings: 60 min at 32°C; variant residual AGLA activity divided by wild-type residual activity
Procedure, shortened: (§1)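 Thermolysin variant culture supernatants stressed in TIDE 2× detergent, with or without DTPA: 60 min at 32° C or 180 min at 50° C. Residual versus unstressed activity on Abz-AGLA-Nba read kinetically at 25° C (Ex 350/Em 420). Performance index is variant residual activity divided by wild-type thermolysin residual activity.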

[3] = Stability assay in 25% TIDE 2X detergent without DTPA (residual Abz-AGLA-Nba protease activity); type: physicochemical; settings: 180 min at 50°C; variant residual AGLA activity divided by wild-type residual activity
Procedure, shortened: as §1

Molecule	PI (performance index), stain removal [1]	PI (relative stability), 25% TIDE 2X with DTPA [2]	PI (relative stability), 25% TIDE 2X without DTPA [3]
Q128I: single-substitution thermolysin variant (SEQ ID NO:3 numbering) (protein, listed as Geobacillus caldoproteolyticus) ITGTSTVGVGRGVLGDQKNINTTYSTYYYLQDNTRGNGIFTYDAKYRTTLPGSLWADADNQFFASYDAPAVDAHYYAGVTYDYYKNVHNRLSYDGNNAAIRSSVHYSQGYNNAFWNGSQMVYGDGDGITFIPLSGGIDVVAHELTHAVTDYTAGLIYQNESGAINEAISDIFGTLVEFYANKNPDWEIGEDVYTPGISGDSLRSMSDPAKYGDPDHYSKRYTGTQDNGGVHINSGIINKAAYLISQGGTHYGVSVVGIGRDKLGKIFYRALTQYLTPTSNFSQLRAAAVQSATDLYGSTSQEVASVKQAFDAVGVK	1.34	1.32	1.19
Q128M: single-substitution thermolysin variant (SEQ ID NO:3 numbering) (protein, listed as Geobacillus caldoproteolyticus) ITGTSTVGVGRGVLGDQKNINTTYSTYYYLQDNTRGNGIFTYDAKYRTTLPGSLWADADNQFFASYDAPAVDAHYYAGVTYDYYKNVHNRLSYDGNNAAIRSSVHYSQGYNNAFWNGSQMVYGDGDGMTFIPLSGGIDVVAHELTHAVTDYTAGLIYQNESGAINEAISDIFGTLVEFYANKNPDWEIGEDVYTPGISGDSLRSMSDPAKYGDPDHYSKRYTGTQDNGGVHINSGIINKAAYLISQGGTHYGVSVVGIGRDKLGKIFYRALTQYLTPTSNFSQLRAAAVQSATDLYGSTSQEVASVKQAFDAVGVK	1.10	1.06	1.09
T049L: single-substitution thermolysin variant (SEQ ID NO:3 numbering) (protein, listed as Geobacillus caldoproteolyticus) ITGTSTVGVGRGVLGDQKNINTTYSTYYYLQDNTRGNGIFTYDAKYRTLLPGSLWADADNQFFASYDAPAVDAHYYAGVTYDYYKNVHNRLSYDGNNAAIRSSVHYSQGYNNAFWNGSQMVYGDGDGQTFIPLSGGIDVVAHELTHAVTDYTAGLIYQNESGAINEAISDIFGTLVEFYANKNPDWEIGEDVYTPGISGDSLRSMSDPAKYGDPDHYSKRYTGTQDNGGVHINSGIINKAAYLISQGGTHYGVSVVGIGRDKLGKIFYRALTQYLTPTSNFSQLRAAAVQSATDLYGSTSQEVASVKQAFDAVGVK	1.25	1.02	–
T278M: single-substitution thermolysin variant (SEQ ID NO:3 numbering) (protein, listed as Geobacillus caldoproteolyticus) ITGTSTVGVGRGVLGDQKNINTTYSTYYYLQDNTRGNGIFTYDAKYRTTLPGSLWADADNQFFASYDAPAVDAHYYAGVTYDYYKNVHNRLSYDGNNAAIRSSVHYSQGYNNAFWNGSQMVYGDGDGQTFIPLSGGIDVVAHELTHAVTDYTAGLIYQNESGAINEAISDIFGTLVEFYANKNPDWEIGEDVYTPGISGDSLRSMSDPAKYGDPDHYSKRYTGTQDNGGVHINSGIINKAAYLISQGGTHYGVSVVGIGRDKLGKIFYRALTQYLTPMSNFSQLRAAAVQSATDLYGSTSQEVASVKQAFDAVGVK	1.02	1.09	–
I156W: single-substitution thermolysin variant (SEQ ID NO:3 numbering) (protein, listed as Geobacillus caldoproteolyticus) ITGTSTVGVGRGVLGDQKNINTTYSTYYYLQDNTRGNGIFTYDAKYRTTLPGSLWADADNQFFASYDAPAVDAHYYAGVTYDYYKNVHNRLSYDGNNAAIRSSVHYSQGYNNAFWNGSQMVYGDGDGQTFIPLSGGIDVVAHELTHAVTDYTAGLWYQNESGAINEAISDIFGTLVEFYANKNPDWEIGEDVYTPGISGDSLRSMSDPAKYGDPDHYSKRYTGTQDNGGVHINSGIINKAAYLISQGGTHYGVSVVGIGRDKLGKIFYRALTQYLTPTSNFSQLRAAAVQSATDLYGSTSQEVASVKQAFDAVGVK	1.16	1.12	–
T049Q: single-substitution thermolysin variant (SEQ ID NO:3 numbering) (protein, listed as Geobacillus caldoproteolyticus) ITGTSTVGVGRGVLGDQKNINTTYSTYYYLQDNTRGNGIFTYDAKYRTQLPGSLWADADNQFFASYDAPAVDAHYYAGVTYDYYKNVHNRLSYDGNNAAIRSSVHYSQGYNNAFWNGSQMVYGDGDGQTFIPLSGGIDVVAHELTHAVTDYTAGLIYQNESGAINEAISDIFGTLVEFYANKNPDWEIGEDVYTPGISGDSLRSMSDPAKYGDPDHYSKRYTGTQDNGGVHINSGIINKAAYLISQGGTHYGVSVVGIGRDKLGKIFYRALTQYLTPTSNFSQLRAAAVQSATDLYGSTSQEVASVKQAFDAVGVK	1.30	–	1.07
Q128V: single-substitution thermolysin variant (SEQ ID NO:3 numbering) (protein, listed as Geobacillus caldoproteolyticus) ITGTSTVGVGRGVLGDQKNINTTYSTYYYLQDNTRGNGIFTYDAKYRTTLPGSLWADADNQFFASYDAPAVDAHYYAGVTYDYYKNVHNRLSYDGNNAAIRSSVHYSQGYNNAFWNGSQMVYGDGDGVTFIPLSGGIDVVAHELTHAVTDYTAGLIYQNESGAINEAISDIFGTLVEFYANKNPDWEIGEDVYTPGISGDSLRSMSDPAKYGDPDHYSKRYTGTQDNGGVHINSGIINKAAYLISQGGTHYGVSVVGIGRDKLGKIFYRALTQYLTPTSNFSQLRAAAVQSATDLYGSTSQEVASVKQAFDAVGVK	1.07	1.45	1.20
Q128Y: single-substitution thermolysin variant (SEQ ID NO:3 numbering) (protein, listed as Geobacillus caldoproteolyticus) ITGTSTVGVGRGVLGDQKNINTTYSTYYYLQDNTRGNGIFTYDAKYRTTLPGSLWADADNQFFASYDAPAVDAHYYAGVTYDYYKNVHNRLSYDGNNAAIRSSVHYSQGYNNAFWNGSQMVYGDGDGYTFIPLSGGIDVVAHELTHAVTDYTAGLIYQNESGAINEAISDIFGTLVEFYANKNPDWEIGEDVYTPGISGDSLRSMSDPAKYGDPDHYSKRYTGTQDNGGVHINSGIINKAAYLISQGGTHYGVSVVGIGRDKLGKIFYRALTQYLTPTSNFSQLRAAAVQSATDLYGSTSQEVASVKQAFDAVGVK	1.13	1.09	1.05
Q273Y: single-substitution thermolysin variant (SEQ ID NO:3 numbering) (protein, listed as Geobacillus caldoproteolyticus) ITGTSTVGVGRGVLGDQKNINTTYSTYYYLQDNTRGNGIFTYDAKYRTTLPGSLWADADNQFFASYDAPAVDAHYYAGVTYDYYKNVHNRLSYDGNNAAIRSSVHYSQGYNNAFWNGSQMVYGDGDGQTFIPLSGGIDVVAHELTHAVTDYTAGLIYQNESGAINEAISDIFGTLVEFYANKNPDWEIGEDVYTPGISGDSLRSMSDPAKYGDPDHYSKRYTGTQDNGGVHINSGIINKAAYLISQGGTHYGVSVVGIGRDKLGKIFYRALTYYLTPTSNFSQLRAAAVQSATDLYGSTSQEVASVKQAFDAVGVK	1.09	1.05	–

Reference: patent US9976134B2, “Thermolysin variants” (Danisco US Inc., priority 2007, dated 2018)
